In the supplement of paper PMC6757056:
± gives the standard deviation of the averaged measurements.

B1: library; a variant is named by its letters at N, in order (parent)
chain: GCUGUCACCGGUGCUUGGUACGUUAUAUUCAGCCGGUCUGAUGAGUCUNNNNNNAGACGAAACAGC

Experiments:
(6R,S)-folinic acid [1] = variants of: B1; assay: normalized RNA/DNA level without ligand (relative to sTRSVctl = 100) (log10 (% of sTRSVctl)); HEK293T overexpressing SLC46A1; higher = less ribozyme self-cleavage, higher mRNA level; details: without (6R,S)-folinic acid; ligand present: no
Method in brief: (§1)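 Ribozyme switch library plasmids with mCherry reporters (eGFP in certain ligand experiments) went into HEK293T cells at 4 µg per 6-well well. Where ligand was used, it was applied 1 h before transfection, and total RNA was extracted with EDTA 72 h later for reverse transcription, amplification, barcoding and sequencing. RNA level is the RNA-to-DNA read ratio normalized to a spiked-in non-cleaving sequence or to the leading sequences, then scaled and log-transformed. Scaling was ×100 with log10, the leading set comprised 25 sequences, and the cutoff was ≥100 DNA reads.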

(6R,S)-folinic acid [2] = variants of: B1; assay: normalized RNA/DNA level with ligand (relative to sTRSVctl = 100) (log10 (% of sTRSVctl)); HEK293T overexpressing SLC46A1; ligand concentration (+) RNA-Seq: 6 mM; higher = less ribozyme self-cleavage, higher mRNA level; details: with (6R,S)-folinic acid; ligand present: yes
Method in brief: as §1

Row | Variant | normalized RNA/DNA level without ligand (log10) ((6R,S)-folinic acid [1]) | normalized RNA/DNA level with ligand (log10) ((6R,S)-folinic acid [2])
1 | CCACCG | 2.007 ± 0.018 | 2.01 ± 0.054
2 | CCACCA | 2.044 ± 0.012 | 2.01 ± 0.041
3 | CCACCU | 2.101 ± 0.015 | 2.07 ± 0.033
4 | GAUGGA | 1.987 ± 0.0081 | 2.02 ± 0.043
5 | GAUGGG | 1.941 ± 0.0096 | 2.043 ± 0.019
6 | CAUGUC | 2.03 ± 0.027 | 1.997 ± 0.0052
7 | CAUGUA | 1.947 ± 0.0027 | 1.99 ± 0.047
8 | CAUUUA | 1.97 ± 0.013 | 1.999 ± 0.013
9 | CAUUUC | 2.036 ± 0.0064 | 2 ± 0.037
10 | UAUCAC | 1.978 ± 0.0043 | 1.99 ± 0.013
11 | CAUCUU | 2.034 ± 0.0024 | 2 ± 0.038
12 | CAUCUG | 2.03 ± 0.032 | 2.02 ± 0.025
13 | CAUCUA | 2.05 ± 0.022 | 2.074 ± 0.012
14 | GAUACU | 2.001 ± 0.0036 | 2.01 ± 0.036
15 | GAUACC | 2.003 ± 0.0086 | 2.026 ± 0.0083
16 | ACAAUU | 2.018 ± 0.0076 | 2.044 ± 0.018
17 | ACAAUC | 2.043 ± 0.01 | 2.03 ± 0.031
18 | UAUGUA | 1.8903 ± 0.0016 | 1.99 ± 0.057
19 | UAUGUU | 1.95 ± 0.022 | 2 ± 0.023
20 | UAUGUC | 2.05 ± 0.033 | 2.01 ± 0.049

Row | Variant | normalized RNA/DNA level without ligand (log10) ((6R,S)-folinic acid [1]) | normalized RNA/DNA level with ligand (log10) ((6R,S)-folinic acid [2])
21 | UAUCCA | 1.979 ± 0.0079 | 2.001 ± 0.0084
22 | UAUCCU | 2.009 ± 0.0051 | 2 ± 0.048
23 | UAUCCC | 2.047 ± 0.0027 | 2.01 ± 0.042
24 | CCAAUU | 2.039 ± 0.0021 | 2.05 ± 0.037
25 | CCAAUA | 1.994 ± 0.0075 | 2 ± 0.036
26 | CCAAUC | 2.028 ± 0.018 | 1.99 ± 0.049
27 | CCAAUG | 1.998 ± 0.0065 | 2.022 ± 0.019
28 | CAUAGU | 2.003 ± 0.013 | 2.025 ± 0.0053
29 | CAUAGA | 2.002 ± 0.0073 | 2.01 ± 0.033
30 | CAUAGG | 1.911 ± 0.019 | 1.998 ± 0.0083
31 | CAUAGC | 1.9903 ± 0.00018 | 1.98 ± 0.047
32 | AAUGUA | 1.9489 ± 1.8e-05 | 2.01 ± 0.04
33 | AAUGUU | 1.972 ± 0.0068 | 1.993 ± 0.0074
34 | AAUGUG | 1.81 ± 0.0053 | 1.999 ± 0.013
35 | AAUCAU | 1.961 ± 0.0057 | 1.992 ± 0.011
36 | AAUCAC | 2.008 ± 0.0074 | 2 ± 0.024
37 | AAUCAA | 1.973 ± 0.014 | 1.9902 ± 0.00064
38 | CCAAAG | 1.899 ± 0.0025 | 1.99 ± 0.025
39 | CCAAAC | 2.017 ± 0.015 | 2.03 ± 0.044
40 | CCAAAU | 1.963 ± 0.013 | 2 ± 0.035

Row | Variant | normalized RNA/DNA level without ligand (log10) ((6R,S)-folinic acid [1]) | normalized RNA/DNA level with ligand (log10) ((6R,S)-folinic acid [2])
41 | UCAACG | 1.909 ± 0.0028 | 2 ± 0.034
42 | UCAACA | 1.987 ± 0.0049 | 2.017 ± 0.018
43 | AAUGAU | 1.937 ± 0.012 | 2 ± 0.051
44 | AAUGAC | 1.9695 ± 0.0006 | 1.99 ± 0.037
45 | UAGUUC | 2.0145 ± 0.00068 | 2.03 ± 0.027
46 | UAGUUU | 2.01 ± 0.0059 | 2.02 ± 0.033
47 | UAGUUA | 1.932 ± 0.015 | 1.984 ± 0.0094
48 | AAUAGC | 1.985 ± 0.013 | 2 ± 0.058
49 | CAUGCG | 2.01 ± 0.019 | 2.01 ± 0.032
50 | CAUGCA | 1.996 ± 0.0096 | 2.01 ± 0.022
51 | CAUGCU | 2.051 ± 0.019 | 2.05 ± 0.064
52 | CAUGCC | 2.058 ± 0.0046 | 2.029 ± 0.014
53 | ACAAAA | 1.97 ± 0.0049 | 1.99 ± 0.033
54 | ACAAAU | 1.952 ± 0.015 | 2.01 ± 0.053
55 | CAUGGU | 1.903 ± 0.019 | 1.95 ± 0.037
56 | CAUGGC | 2.04 ± 0.022 | 2.03 ± 0.03
57 | CAUGGG | 1.91 ± 0.015 | 2.008 ± 0.013
58 | CAUGGA | 2.0099 ± 0.0018 | 2.04 ± 0.025
